This note sets out measurements from US20240158497A1 (published 2024).

First the molecules themselves.
B1: MAb16622 (antibody, V domains shown)
VH: EVQLVESGGGVVRPGGSLRLSCTASGFTFDDYGMSWVRQAPGKGLEWVSGINWNGGRTEYADAVKGRFIISRDNAKNSLYLQMNSLRAEDTALYFCARTELRWDYWGQGTLVTVSS
VL: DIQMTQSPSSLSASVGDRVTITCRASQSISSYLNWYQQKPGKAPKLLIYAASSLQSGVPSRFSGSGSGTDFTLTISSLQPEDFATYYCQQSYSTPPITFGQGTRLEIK
notes: hIgG4 isotype control used
B2: MAb16665 (antibody, V domains shown)
VH: QVQLVESGGGVVQPGRSLRLACAASGFTFRSYGMHWVRQAPGKGLEWVAVIWYDGSNKYYTDSVKGRFTISRDNSKNTLYLQMNSLRAEDTAMYYCAIDKWATVTTYLFDYWGQGTLVTVSS
VL: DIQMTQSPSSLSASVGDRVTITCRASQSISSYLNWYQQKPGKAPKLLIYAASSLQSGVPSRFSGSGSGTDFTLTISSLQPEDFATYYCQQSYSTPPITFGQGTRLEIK
notes: hIgG4 isotype control used
B3: MAb16618 (antibody, V domains shown)
VH: QVQLQESGPGLVKPSETLSLTCTVSGGSISNYYWTWIRQPPGKGLEWIGHISNSGTTNYNPSLKSRVTISVDTSKNQFSLKLTSVTAADTAVYYCARLPLGIAAVDTDYYYYFGMDVWGQGTTVTVSS
VL: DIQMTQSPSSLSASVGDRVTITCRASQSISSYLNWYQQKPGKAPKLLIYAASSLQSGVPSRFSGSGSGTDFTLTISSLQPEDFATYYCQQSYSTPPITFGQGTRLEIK
notes: hIgG4 isotype control used
B4: MAb16673 (antibody, V domains shown)
VH: EVQLVQSGAEVKKPGESLKISCKGSGYSFTSYWIDWVRQMPGKGLEWMGIIYPDDSDTRYSPSFQGQVTMSVDKSISTAYLQWSSLKASDTAIYYCARHERGIVEAGTDYYYYYGMDVWGQGTTVTVSS
VL: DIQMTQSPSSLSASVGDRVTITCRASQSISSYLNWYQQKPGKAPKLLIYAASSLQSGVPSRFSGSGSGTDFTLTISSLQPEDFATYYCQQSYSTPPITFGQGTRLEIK
notes: hIgG4 isotype control used
B5: MAb16636 (antibody, V domains shown)
VH: QLQLQESGPGLVKPSETLSLICTVSGGSISSNNYYWGWIRQPPGKGLEWIGNLYGSGSTYYNPSLKSRVTISVDTSKNQFSLKLSFVTAADTAVYHCARWDTNGGAFDIWGQGTMVTVSS
VL: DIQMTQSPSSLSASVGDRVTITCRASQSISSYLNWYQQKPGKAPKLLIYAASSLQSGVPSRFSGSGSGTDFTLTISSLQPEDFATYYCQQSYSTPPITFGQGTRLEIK
notes: hIgG4 isotype control used
B6: MAb16666 (antibody, V domains shown)
VH: EVQLVESGGGLVQSGGSLRLSCAASGFTFSRYEMNWVRQAPGKGLEWVAYISNTGTTRDYSDSVKGRFTISRDNAKNSLYLQMSSLRVEDTAVYYCVREKFSGTSDWFDPWGQGTLVTVSS
VL: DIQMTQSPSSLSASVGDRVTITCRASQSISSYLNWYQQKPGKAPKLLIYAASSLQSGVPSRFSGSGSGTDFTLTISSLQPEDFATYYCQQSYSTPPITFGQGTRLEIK
notes: hIgG4 isotype control used
B7: MAb16664 (antibody, V domains shown)
VH: QVQLVQSGTEVKKPGSSVKVSCKASGGTFSTYPINWVRQAPGQGLEWMGGIIPIFGTASYAQKFQGRVAITTDESTSTAYMELNSLRSEDTAVYYCARERPNWGSNDYWGQGTLVTVSS
VL: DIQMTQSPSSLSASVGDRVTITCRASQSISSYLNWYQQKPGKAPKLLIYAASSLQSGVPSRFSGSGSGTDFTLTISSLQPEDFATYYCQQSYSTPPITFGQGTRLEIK
notes: hIgG4 isotype control used
B8: MAb16623 (antibody, V domains shown)
VH: EVQLVESGGGLVQPGGSLRLSCAASGLTFSSYEMNWVRQAPGKGLEWVSHISSAGSTKYYADSVKGRFTISRDNAKNSLFLQMNSLRAEDTAIYYCAGYNYAYYYFGVDVWGQGTTVTVSS
VL: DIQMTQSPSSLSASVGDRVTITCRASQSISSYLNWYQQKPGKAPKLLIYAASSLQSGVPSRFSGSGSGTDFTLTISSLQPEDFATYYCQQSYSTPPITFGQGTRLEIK
notes: hIgG4 isotype control used
B9: MAb16656 (antibody, V domains shown)
VH: EVQLVESGGGLVQPGRSLRLSCAASGFTLDDFAMHWVRQAPGKGLEWVSGISWNSGNIGYADSVKGRFTISRDNARNSLYLQMNSLRAEDTALYYCTSGYYLYYAMDVWGQGTTVTVSS
VL: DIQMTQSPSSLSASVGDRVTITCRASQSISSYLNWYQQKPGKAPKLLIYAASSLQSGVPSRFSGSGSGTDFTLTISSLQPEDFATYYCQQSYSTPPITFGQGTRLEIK
notes: hIgG4 isotype control used
B10: MAb16662 (antibody, V domains shown)
VH: EVQLVESGGGLVQPGGSLRLSCTASGFTFSNYAIFWVRQAPGKGLEYVSGISNNGVTKYYADSVRDRFTISRDNSRNTVSIQMDSLRTEDMAVYYCARENWGSDDGFDIWGQGTMVTVSS
VL: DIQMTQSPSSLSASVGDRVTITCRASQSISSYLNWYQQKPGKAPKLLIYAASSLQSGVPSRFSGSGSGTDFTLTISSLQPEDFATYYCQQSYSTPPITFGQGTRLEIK
notes: hIgG4 isotype control used
B11: MAb16659 (antibody, V domains shown)
VH: QVQLVQSGPEVKKPGSSVKVSCKASGGTIDRNEITWVRQAPGQGLEWMGVIIPILGEAHYERKFQGRLTITMDESTSTAYMELSNLRSEDTAVYYCARERAARGYLDYWGQGTLVTVSS
VL: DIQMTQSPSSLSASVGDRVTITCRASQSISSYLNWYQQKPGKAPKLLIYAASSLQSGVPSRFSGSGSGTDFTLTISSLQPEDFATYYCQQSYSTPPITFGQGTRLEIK
notes: hIgG4 isotype control used
B12: MAb16682 (antibody, V domains shown)
VH: EVQLVESGGGLVQPGGSLRLSCAASGFTFSTYWMNWVRQAPGKGLEWVANIKEDGSEKYYVDSVKGRFTISRDNAKNSLYLQMNSLRAEDTAVYYCAREGFGVVTYIWGQGTMVTVSS
VL: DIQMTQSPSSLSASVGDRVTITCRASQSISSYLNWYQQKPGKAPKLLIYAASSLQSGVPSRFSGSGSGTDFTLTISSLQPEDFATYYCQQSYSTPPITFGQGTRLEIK
notes: hIgG4 isotype control used
B13: MAb16676 (antibody, V domains shown)
VH: QVQLVQSGAEVMKPGASVKVSCRASGYTFSSYDINWVRQAPGQGLEWMGWISTATGNTNYPQKVQGRVTMTTDTSTNTAYMELRSLRSDDTAVYYCTREGNSKGWLDPWGQGTLVTVSS
VL: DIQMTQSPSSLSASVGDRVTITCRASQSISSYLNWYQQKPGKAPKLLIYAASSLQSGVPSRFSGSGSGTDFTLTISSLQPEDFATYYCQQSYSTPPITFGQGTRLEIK
notes: hIgG4 isotype control used
B14: MAb16669 (antibody, V domains shown)
VH: EVQLVESGGGLVQPGGSLRLSCAASGFTFSSYAMNWVRQAPGKGLEWVSAISGSGDSTYYTDSVKGRFTISRDNSKNTLYLQMNTLRAEDTAVYYCAKEEIVMLVGATPGWFDPWGQGTLVTVSS
VL: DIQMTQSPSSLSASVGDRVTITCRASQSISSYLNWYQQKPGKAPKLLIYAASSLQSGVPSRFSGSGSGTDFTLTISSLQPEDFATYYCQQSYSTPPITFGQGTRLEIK
notes: hIgG4 isotype control used
B15: MAb16637 (antibody, V domains shown)
VH: QVQLVQSGAEVKKPGASVKVSCKASGYTFTSLGISWVRQAPGQGLEWMGWISAYSGNRDYAQKFQGRVTMTTDTSTSTAYMELRSLRSDDTAVYYCARSLRFDYWGQGTLVTVSS
VL: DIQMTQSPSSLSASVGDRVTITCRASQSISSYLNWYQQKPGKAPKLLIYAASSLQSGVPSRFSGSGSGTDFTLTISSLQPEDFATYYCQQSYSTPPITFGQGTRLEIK
notes: hIgG4 isotype control used
B16: MAb16614 (antibody, V domains shown)
VH: QVQLVESGGGVVQPGGSLRLSCAASGFTFSTYDIHWVRQAPGKGLEWVAVISFDGSNRNYGDSVKGRFTISRDNSDNTLFLEMNNLRFEDTAVYYCAKEGYGVDFQHWGQGTLVTVSS
VL: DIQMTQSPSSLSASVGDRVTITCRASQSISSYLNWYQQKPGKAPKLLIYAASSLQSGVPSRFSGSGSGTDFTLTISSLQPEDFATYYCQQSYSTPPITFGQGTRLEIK
notes: hIgG4 isotype control used
B17: MAb16683 (antibody, V domains shown)
VH: QVQLVESGGGLVKPGGSLRLSCAASGFTFSDYYMTWIRQTPGKGLDWVSYISSSGTNKYNADSVKGRFTISRDNAKNSLYLQMNSLRAEDTAVYYCVRDPPWGMDVWGQGTTVTVSS
VL: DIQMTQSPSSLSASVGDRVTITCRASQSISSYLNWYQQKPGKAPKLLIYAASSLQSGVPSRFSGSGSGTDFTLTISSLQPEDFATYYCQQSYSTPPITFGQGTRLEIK
notes: hIgG4 isotype control used

The test addresses T1, human gp130 extracellular domain (E23-E619) with C-terminal mouse IgG2a Fc (human).
T1 construct: dimeric; also called hGP130-mFc; human GP130-mFc
T1 chain: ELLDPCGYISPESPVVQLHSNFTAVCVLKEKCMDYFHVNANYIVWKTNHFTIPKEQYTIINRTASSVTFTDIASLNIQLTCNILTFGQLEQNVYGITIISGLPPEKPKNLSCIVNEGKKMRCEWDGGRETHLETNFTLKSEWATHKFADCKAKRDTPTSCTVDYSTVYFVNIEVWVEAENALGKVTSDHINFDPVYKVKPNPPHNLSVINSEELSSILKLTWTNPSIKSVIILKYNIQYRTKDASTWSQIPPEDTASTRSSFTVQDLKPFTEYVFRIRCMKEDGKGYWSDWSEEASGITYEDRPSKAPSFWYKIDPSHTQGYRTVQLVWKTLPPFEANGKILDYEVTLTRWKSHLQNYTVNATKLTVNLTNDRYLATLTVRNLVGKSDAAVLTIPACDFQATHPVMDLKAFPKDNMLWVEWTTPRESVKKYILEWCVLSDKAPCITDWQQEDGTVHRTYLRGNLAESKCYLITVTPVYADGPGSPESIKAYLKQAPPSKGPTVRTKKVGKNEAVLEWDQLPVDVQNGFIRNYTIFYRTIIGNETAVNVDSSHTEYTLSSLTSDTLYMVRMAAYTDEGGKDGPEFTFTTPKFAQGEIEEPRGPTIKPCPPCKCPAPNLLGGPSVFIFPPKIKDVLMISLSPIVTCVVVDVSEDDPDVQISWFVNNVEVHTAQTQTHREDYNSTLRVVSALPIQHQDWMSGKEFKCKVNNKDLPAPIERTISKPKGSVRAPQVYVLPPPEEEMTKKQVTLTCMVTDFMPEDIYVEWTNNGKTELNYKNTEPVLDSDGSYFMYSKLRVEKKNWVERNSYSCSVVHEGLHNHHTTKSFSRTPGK
The test can be described thus: blocking ELISA, 2.5 nM hGP130-mFc on plate-bound CNTFR/CNTF complex. As to the method:
The experiment was carried out using the following procedure. Human CNTFRα was coated at a concentration of […] in HBSS on a 96-well microtiter plate overnight at 4° C. […] Human CNTF at a concentration of 1 μg/ml in HBSS was added to the plate bound CNTFRα for 1 hour at room temperature. In separate dilution plates, a constant amount of 2.5 nM of human GP130-mFc protein was titrated with antibodies ranging from 3.4 pM to 200 nM in serial dilution and with no antibody present. These solutions were incubated for 1 hour at room temperature (RT) and subsequently transferred to the microtiter plates with CNTFRα/CNTF complex without washing. The plates were incubated for 2 hours at RT, washed with PBST buffer, and plate-bound hGP130-mFc was detected with an anti-mFc polyclonal antibody conjugated with horseradish peroxidase (HRP) (Jackson ImmunoResearch Inc). Samples were developed with a TMB solution (BD Biosciences, substrate A and B mixed at 1:1 ratio as per manufacturer's instructions) to produce a colorimetric reaction and then neutralized with 1M sulfuric acid before measuring absorbance at 450 nm on a Victor X5 plate reader.
Data analysis was performed using a sigmoidal dose-response model within Prism™ software (GraphPad). […] Percent blockade at maximum concentration tested was calculated as an indicator of the ability of the antibodies to block binding of GP130 to CNTFRα/CNTF on the plate as determined from the dose curve. The ratio of the reduction in signal observed in the presence of the highest tested concentration of 200 nM antibody, relative to the difference between the signal with 2.5 nM GP130 with no antibody (0% blocking) and the background signal from HRP-conjugated secondary antibody alone (100% blocking), was subtracted from 100% blocking.
For orientation: ELISA stands for enzyme-linked immunosorbent assay.
With B1, the “Max Blocking of Antibody at 200 nM (%)” value is -84.1%.
The same measure, in the same setting: the figure for B2 is -47.1%.
On to B3, for which half-maximal inhibition (IC50) required 2.37 nM and the “Max Blocking of Antibody at 200 nM (%)” value was 86.7%.
The like results for B4 were, in that order, 2.37 nM and 104%.
For B5, the IC50 came out at 1.1 nM and the “Max Blocking of Antibody at 200 nM (%)” value worked out at 94.8%.
Consider B6, for which the “Max Blocking of Antibody at 200 nM (%)” value is 103%.
As to B7, the “Max Blocking of Antibody at 200 nM (%)” value was -46.5%.
Same read-out and setting: the same measure for B8: -49.2%; for B9: -24.7%.
With B10, the IC50 stood at 6.51 nM and the “Max Blocking of Antibody at 200 nM (%)” value came to 81.9%.
As for B11, the “Max Blocking of Antibody at 200 nM (%)” value was -18.8%.
The same measure, in the same setting: the figure for B12 is -3.39%; for B13 it is -15.4%.
In the case of B14, the IC50 is 12.3 nM and the “Max Blocking of Antibody at 200 nM (%)” value worked out at 47.1%.
With B15, the “Max Blocking of Antibody at 200 nM (%)” value is -38.9%.
Consider B16, for which the “Max Blocking of Antibody at 200 nM (%)” value is -14.8%.
The same measure, in the same setting: the figure for B17 is -22.8%.

One may read the IC50 as the midpoint of a concentration-inhibition curve. The low end stands for greater potency, the high end for weaker potency.
